In assay [1] the target is human DCLK1-CAR (on transduced T cells). In words: flow cytometry of CAR-transduced T cells stained with biotinylated DCLK1 protein (FL2-H), gate 'stained'; controls: T cells 3.19% (small print 3.18%), mock 3.17%.
Assay [2] addresses mouse DCLK1-CAR (on transduced T cells). The description is as above.

On to “Biotin-labeled DCLK1 (from UniProt O15075 1-740)”, for which the % stained in assay [1] is 2.73%; in assay [2] it was 11.6%.

These data come from patent US20260159607A1.
